Assay results as given in patent US12630600B2 (MEDIMMUNE LIMITED, priority 2022, dated 2026).
Starred links: 1 amine or outer side, 2 acyl side, 3 side chain; linkers in the order of their positions; H or OH if unused. Non-standard residues stand in square brackets, D forms with d. Groups on a side chain read outwards from the residue. No end group written: not given here. *: point of attachment. C20 diacid = O=C(O)CCCCCCCCCCCCCCCCCCC(=O)*; C18 diacid = O=C(O)CCCCCCCCCCCCCCCCC(=O)*; γGlu = O=C(O)[C@H](CCC(=O)[*:2])N[*:1]; αMeF = C[C@](N)(Cc1ccccc1)C(=O)O; AEEA = NCCOCCOCC(=O)O; Aib = CC(C)(N)C(=O)O

Columns and labels:
human glucagon receptor = human glucagon receptor (human, UniProt P47871); test: cell-based or functional assay
human GLP-1 receptor = human GLP-1 receptor (human, UniProt P43220); test: cell-based or functional assay

| Binder | cAMP production EC50 (human glucagon receptor) | cAMP production EC50 (human GLP-1 receptor) |
| --- | --- | --- |
| H[Aib]QGTFTSDVSK[αMeF]LDSK([AEEA-AEEA-γGlu-C18 diacid])RAQDFVQWLL[Aib]TE-OH (not fully specified) [Peptide 150] | 355 pM | 166 pM |
| H[Aib]QGTFTSDVSK[αMeF]LDSK([AEEA-AEEA-γGlu-C18 diacid])RAQDFVRWIAE[Aib]G-OH (N-terminus assumed; SMILES CC[C@H](C)[C@H](NC(=O)[C@H](Cc1c[nH]c2ccccc12)NC(=O)[C@H](CCCNC(=N)N)NC(=O)[C@@H](NC(=O)[C@H](Cc1ccccc1)NC(=O)[C@H](CC(=O)O)NC(=O)[C@H](CCC(N)=O)NC(=O)[C@H](C)NC(=O)[C@H](CCCNC(=N)N)NC(=O)[C@H](CCCCNC(=O)COCCOCCNC(=O)COCCOCCNC(=O)CC[C@H](NC(=O)CCCCCCCCCCCCCCCCC(=O)O)C(=O)O)NC(=O)[C@H](CO)NC(=O)[C@H](CC(=O)O)NC(=O)[C@H](CC(C)C)NC(=O)[C@](C)(Cc1ccccc1)NC(=O)[C@H](CCCCN)NC(=O)[C@H](CO)NC(=O)[C@@H](NC(=O)[C@H](CC(=O)O)NC(=O)[C@H](CO)NC(=O)[C@@H](NC(=O)[C@H](Cc1ccccc1)NC(=O)[C@@H](NC(=O)CNC(=O)[C@H](CCC(N)=O)NC(=O)C(C)(C)NC(=O)[C@@H](N)Cc1c[nH]cn1)[C@@H](C)O)[C@@H](C)O)C(C)C)C(C)C)C(=O)N[C@@H](C)C(=O)N[C@@H](CCC(=O)O)C(=O)NC(C)(C)C(=O)NCC(=O)O) [Peptide 148] | 568 pM | 40.2 pM |
| H[Aib]QGTFTSDVSK[αMeF]LDSK([AEEA-AEEA-γGlu-C18 diacid])RAQDFVRWLEA[Aib]G-OH (N-terminus assumed; SMILES CC(C)C[C@H](NC(=O)[C@H](Cc1c[nH]c2ccccc12)NC(=O)[C@H](CCCNC(=N)N)NC(=O)[C@@H](NC(=O)[C@H](Cc1ccccc1)NC(=O)[C@H](CC(=O)O)NC(=O)[C@H](CCC(N)=O)NC(=O)[C@H](C)NC(=O)[C@H](CCCNC(=N)N)NC(=O)[C@H](CCCCNC(=O)COCCOCCNC(=O)COCCOCCNC(=O)CC[C@H](NC(=O)CCCCCCCCCCCCCCCCC(=O)O)C(=O)O)NC(=O)[C@H](CO)NC(=O)[C@H](CC(=O)O)NC(=O)[C@H](CC(C)C)NC(=O)[C@](C)(Cc1ccccc1)NC(=O)[C@H](CCCCN)NC(=O)[C@H](CO)NC(=O)[C@@H](NC(=O)[C@H](CC(=O)O)NC(=O)[C@H](CO)NC(=O)[C@@H](NC(=O)[C@H](Cc1ccccc1)NC(=O)[C@@H](NC(=O)CNC(=O)[C@H](CCC(N)=O)NC(=O)C(C)(C)NC(=O)[C@@H](N)Cc1c[nH]cn1)[C@@H](C)O)[C@@H](C)O)C(C)C)C(C)C)C(=O)N[C@@H](CCC(=O)O)C(=O)N[C@@H](C)C(=O)NC(C)(C)C(=O)NCC(=O)O) [Peptide 147] | 43.5 pM | 15.3 pM |
| H[Aib]QGTFTSDVSK[αMeF]LDSK([AEEA-AEEA-γGlu-C18 diacid])RAQDFVRWVVE[Aib]G-OH (N-terminus assumed; SMILES CC(C)C[C@H](NC(=O)[C@](C)(Cc1ccccc1)NC(=O)[C@H](CCCCN)NC(=O)[C@H](CO)NC(=O)[C@@H](NC(=O)[C@H](CC(=O)O)NC(=O)[C@H](CO)NC(=O)[C@@H](NC(=O)[C@H](Cc1ccccc1)NC(=O)[C@@H](NC(=O)CNC(=O)[C@H](CCC(N)=O)NC(=O)C(C)(C)NC(=O)[C@@H](N)Cc1c[nH]cn1)[C@@H](C)O)[C@@H](C)O)C(C)C)C(=O)N[C@@H](CC(=O)O)C(=O)N[C@@H](CO)C(=O)N[C@@H](CCCCNC(=O)COCCOCCNC(=O)COCCOCCNC(=O)CC[C@H](NC(=O)CCCCCCCCCCCCCCCCC(=O)O)C(=O)O)C(=O)N[C@@H](CCCNC(=N)N)C(=O)N[C@@H](C)C(=O)N[C@@H](CCC(N)=O)C(=O)N[C@@H](CC(=O)O)C(=O)N[C@@H](Cc1ccccc1)C(=O)N[C@H](C(=O)N[C@@H](CCCNC(=N)N)C(=O)N[C@@H](Cc1c[nH]c2ccccc12)C(=O)N[C@H](C(=O)N[C@H](C(=O)N[C@@H](CCC(=O)O)C(=O)NC(C)(C)C(=O)NCC(=O)O)C(C)C)C(C)C)C(C)C) [Peptide 149] | 2650 pM | 8.71 pM |
| H[Aib]QGTFTSDVSK[αMeF]LDSK([AEEA-AEEA-γGlu-C18 diacid])RAQDFVRWLASR-OH (N-terminus assumed; SMILES CC(C)C[C@H](NC(=O)[C@H](Cc1c[nH]c2ccccc12)NC(=O)[C@H](CCCNC(=N)N)NC(=O)[C@@H](NC(=O)[C@H](Cc1ccccc1)NC(=O)[C@H](CC(=O)O)NC(=O)[C@H](CCC(N)=O)NC(=O)[C@H](C)NC(=O)[C@H](CCCNC(=N)N)NC(=O)[C@H](CCCCNC(=O)COCCOCCNC(=O)COCCOCCNC(=O)CC[C@H](NC(=O)CCCCCCCCCCCCCCCCC(=O)O)C(=O)O)NC(=O)[C@H](CO)NC(=O)[C@H](CC(=O)O)NC(=O)[C@H](CC(C)C)NC(=O)[C@](C)(Cc1ccccc1)NC(=O)[C@H](CCCCN)NC(=O)[C@H](CO)NC(=O)[C@@H](NC(=O)[C@H](CC(=O)O)NC(=O)[C@H](CO)NC(=O)[C@@H](NC(=O)[C@H](Cc1ccccc1)NC(=O)[C@@H](NC(=O)CNC(=O)[C@H](CCC(N)=O)NC(=O)C(C)(C)NC(=O)[C@@H](N)Cc1c[nH]cn1)[C@@H](C)O)[C@@H](C)O)C(C)C)C(C)C)C(=O)N[C@@H](C)C(=O)N[C@@H](CO)C(=O)N[C@@H](CCCNC(=N)N)C(=O)O) [Peptide 146] | 1630 pM | 24.6 pM |

The remaining lines, values ahead:

| cAMP production EC50 (human glucagon receptor) | cAMP production EC50 (human GLP-1 receptor) | Binder |
| --- | --- | --- |
| 99 pM | 41.2 pM | H[Aib]QGTFTSDVSK[αMeF]LDSK([AEEA-AEEA-γGlu-C20 diacid])RAQDFVRWLL[Aib]E-OH (N-terminus assumed; SMILES CC(C)C[C@H](NC(=O)[C@H](Cc1c[nH]c2ccccc12)NC(=O)[C@H](CCCNC(=N)N)NC(=O)[C@@H](NC(=O)[C@H](Cc1ccccc1)NC(=O)[C@H](CC(=O)O)NC(=O)[C@H](CCC(N)=O)NC(=O)[C@H](C)NC(=O)[C@H](CCCNC(=N)N)NC(=O)[C@H](CCCCNC(=O)COCCOCCNC(=O)COCCOCCNC(=O)CC[C@H](NC(=O)CCCCCCCCCCCCCCCCCCC(=O)O)C(=O)O)NC(=O)[C@H](CO)NC(=O)[C@H](CC(=O)O)NC(=O)[C@H](CC(C)C)NC(=O)[C@](C)(Cc1ccccc1)NC(=O)[C@H](CCCCN)NC(=O)[C@H](CO)NC(=O)[C@@H](NC(=O)[C@H](CC(=O)O)NC(=O)[C@H](CO)NC(=O)[C@@H](NC(=O)[C@H](Cc1ccccc1)NC(=O)[C@@H](NC(=O)CNC(=O)[C@H](CCC(N)=O)NC(=O)C(C)(C)NC(=O)[C@@H](N)Cc1c[nH]cn1)[C@@H](C)O)[C@@H](C)O)C(C)C)C(C)C)C(=O)N[C@@H](CC(C)C)C(=O)NC(C)(C)C(=O)N[C@@H](CCC(=O)O)C(=O)O) [Peptide 153] |
| 178 pM | 111 pM | H[Aib]QGTFTSDVSK[αMeF]LDSK([AEEA-AEEA-γGlu-C20 diacid])RAQDFVRWLL[Aib]TE-OH (N-terminus assumed; SMILES CC(C)C[C@H](NC(=O)[C@H](Cc1c[nH]c2ccccc12)NC(=O)[C@H](CCCNC(=N)N)NC(=O)[C@@H](NC(=O)[C@H](Cc1ccccc1)NC(=O)[C@H](CC(=O)O)NC(=O)[C@H](CCC(N)=O)NC(=O)[C@H](C)NC(=O)[C@H](CCCNC(=N)N)NC(=O)[C@H](CCCCNC(=O)COCCOCCNC(=O)COCCOCCNC(=O)CC[C@H](NC(=O)CCCCCCCCCCCCCCCCCCC(=O)O)C(=O)O)NC(=O)[C@H](CO)NC(=O)[C@H](CC(=O)O)NC(=O)[C@H](CC(C)C)NC(=O)[C@](C)(Cc1ccccc1)NC(=O)[C@H](CCCCN)NC(=O)[C@H](CO)NC(=O)[C@@H](NC(=O)[C@H](CC(=O)O)NC(=O)[C@H](CO)NC(=O)[C@@H](NC(=O)[C@H](Cc1ccccc1)NC(=O)[C@@H](NC(=O)CNC(=O)[C@H](CCC(N)=O)NC(=O)C(C)(C)NC(=O)[C@@H](N)Cc1c[nH]cn1)[C@@H](C)O)[C@@H](C)O)C(C)C)C(C)C)C(=O)N[C@@H](CC(C)C)C(=O)NC(C)(C)C(=O)N[C@H](C(=O)N[C@@H](CCC(=O)O)C(=O)O)[C@@H](C)O) [Peptide 151] |
| 270 pM | 48 pM | H[Aib]QGTFTSDVSK[αMeF]LDSK([AEEA-AEEA-γGlu-C18 diacid])RARDFVRWLL[Aib]TE-OH (also: αMePhe at 23 (V)) [Peptide 166] |
| 20.4 pM | 11.9 pM | H[Aib]QGTFTSDVSK[αMeF]LDSK([AEEA-AEEA-γGlu-C18 diacid])RAQDFVRWLL[Aib]E-OH (N-terminus assumed; SMILES CC(C)C[C@H](NC(=O)[C@H](Cc1c[nH]c2ccccc12)NC(=O)[C@H](CCCNC(=N)N)NC(=O)[C@@H](NC(=O)[C@H](Cc1ccccc1)NC(=O)[C@H](CC(=O)O)NC(=O)[C@H](CCC(N)=O)NC(=O)[C@H](C)NC(=O)[C@H](CCCNC(=N)N)NC(=O)[C@H](CCCCNC(=O)COCCOCCNC(=O)COCCOCCNC(=O)CC[C@H](NC(=O)CCCCCCCCCCCCCCCCC(=O)O)C(=O)O)NC(=O)[C@H](CO)NC(=O)[C@H](CC(=O)O)NC(=O)[C@H](CC(C)C)NC(=O)[C@](C)(Cc1ccccc1)NC(=O)[C@H](CCCCN)NC(=O)[C@H](CO)NC(=O)[C@@H](NC(=O)[C@H](CC(=O)O)NC(=O)[C@H](CO)NC(=O)[C@@H](NC(=O)[C@H](Cc1ccccc1)NC(=O)[C@@H](NC(=O)CNC(=O)[C@H](CCC(N)=O)NC(=O)C(C)(C)NC(=O)[C@@H](N)Cc1c[nH]cn1)[C@@H](C)O)[C@@H](C)O)C(C)C)C(C)C)C(=O)N[C@@H](CC(C)C)C(=O)NC(C)(C)C(=O)N[C@@H](CCC(=O)O)C(=O)O) [Peptide 152] |
